In article PMC6994090:

Molecular target: alpha-thrombin (human, UniProt P00734;P00734 328-363;364-622)
Experiment: SPR

Binder | Kd [nM]
CCUUUGGUUCGGAUAAUUAUUAAGUAUUGUCUUCAUUCA (structured_RNA, RNA (U for T); 2'-F C and U, 2'-OH A and G) [Tbn#3] | 1.4
UGAGGUGUUUGGGGUACUACUGGUAAAGGAUUUUCAUCUA (structured_RNA, RNA (U for T); 2'-F C and U, 2'-OH A and G) [Tbn#6] | 1.7
